Data: publication PMC8406831, “High-resolution structure of the amino acid transporter AdiC reveals insights into the role of water molecules and networks in oligomerization and substrate binding” (BMC Biology, 2021)
Positions count from the first letter of the chain named. In names and notes the source's numbering stands.

B1: AdiC-Q88E (natural protein, E. coli)
chain: MSSDADAHKVGLIPVTLMVSGNIMGSGVFLLPANLASTGGIAIYGWLVTIIGALGLSMVYAKMSFLDPSPGGSYAYARRCFGPFLGYETNVLYWLACWIGNIAMVVIGVGYLSYFFPILKDPLVLTITCVVVLWIFVLLNIVGPKMITRVQAVATVLALIPIVGIAVFGWFWFRGETYMAAWNVSGLGTFGAIQSTLNVTLWSFIGVESASVAAGVVKNPKRNVPIATIGGVLIAAVCYVLSTTAIMGMIPNAALRVSASPFGDAARMALGDTAGAIVSFCAAAGCLGSLGGWTLLAGQTAKAAADDGLFPPIFARVNKAGTPVAGLIIVGILMTIFQLSSISPNATKEFGLVSSVSVIFTLVPYLYTCAALLLLGHGHFGKARPAYLAVTTIAFLYCIWAVVGSGAKEVMWSFVTLMVITAMYALNYNRLHKNPYPLDAPISKD
notes: AdiC, L-arginine/agmatine transporter of E. coli (gene from XL1-Blue genomic DNA, vector pZUDF21) with the point mutation Q88E; Residues of the HRV3C site may remain at the C-terminus after cleavage; source: E. coli BL21(DE3) pLysS, purified (Ni-NTA in DDM, on-column HRV3C cleavage); not shown: deca His-tag, C-terminal, cleaved
B2: AdiC-T421V (natural protein, E. coli)
chain: B1 chain with E88Q, T421V
notes: AdiC, L-arginine/agmatine transporter of E. coli (gene from XL1-Blue genomic DNA, vector pZUDF21) with the point mutation T421V; Residues of the HRV3C site may remain at the C-terminus after cleavage; source: E. coli BL21(DE3) pLysS, purified (Ni-NTA in DDM, on-column HRV3C cleavage); not shown: deca His-tag, C-terminal, cleaved
B3: AdiC-Y367F (natural protein, E. coli)
chain: B1 chain with E88Q, Y367F
notes: AdiC, L-arginine/agmatine transporter of E. coli (gene from XL1-Blue genomic DNA, vector pZUDF21) with the point mutation Y367F; Residues of the HRV3C site may remain at the C-terminus after cleavage; source: E. coli BL21(DE3) pLysS, purified (Ni-NTA in DDM, on-column HRV3C cleavage); not shown: deca His-tag, C-terminal, cleaved

Target: the molecule itself
Test: SEC; Superdex 200 5/150 GL, 20 mM Tris-HCl, pH 8.0, 150 mM NaCl, 0.04% (w/v) DDM; elution volumes of the mutants compared with the wild type

Binding result, binds:
B1, B2, B3
